Test results as given in patent US20230235004A1 (published 2023).

T1: human MAdCAM protein (human, UniProt Q13477 19-317, limits assumed)
T1 construct: also called soluble monomeric human MAdCAM; recombinant human MAdCAM
T1 sequence (looked up): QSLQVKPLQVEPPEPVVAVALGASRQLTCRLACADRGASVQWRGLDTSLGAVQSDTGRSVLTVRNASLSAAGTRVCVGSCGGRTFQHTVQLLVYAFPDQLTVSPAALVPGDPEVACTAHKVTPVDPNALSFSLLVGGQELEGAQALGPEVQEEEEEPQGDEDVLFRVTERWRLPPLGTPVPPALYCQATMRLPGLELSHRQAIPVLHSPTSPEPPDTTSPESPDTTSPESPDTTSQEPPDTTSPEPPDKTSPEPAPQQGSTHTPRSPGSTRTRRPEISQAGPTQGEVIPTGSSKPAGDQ

T2: human MAdCAM expressed on cells (human, UniProt Q13477 19-382)
T2 construct: whole, on cells
T2 sequence (looked up): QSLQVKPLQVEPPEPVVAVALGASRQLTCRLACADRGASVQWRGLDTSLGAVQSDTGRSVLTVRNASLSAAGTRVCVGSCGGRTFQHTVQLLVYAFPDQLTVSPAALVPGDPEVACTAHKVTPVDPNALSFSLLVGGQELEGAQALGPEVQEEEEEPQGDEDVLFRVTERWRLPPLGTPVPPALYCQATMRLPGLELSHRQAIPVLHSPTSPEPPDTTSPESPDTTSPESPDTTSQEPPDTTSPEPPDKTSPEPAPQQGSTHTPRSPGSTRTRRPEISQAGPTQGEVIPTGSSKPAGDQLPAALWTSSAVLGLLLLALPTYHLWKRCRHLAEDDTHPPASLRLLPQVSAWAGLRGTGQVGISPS

T3: mouse MAdCAM expressed on cells (mouse, UniProt Q61826 22-405)
T3 construct: whole, on cells
T3 sequence (looked up): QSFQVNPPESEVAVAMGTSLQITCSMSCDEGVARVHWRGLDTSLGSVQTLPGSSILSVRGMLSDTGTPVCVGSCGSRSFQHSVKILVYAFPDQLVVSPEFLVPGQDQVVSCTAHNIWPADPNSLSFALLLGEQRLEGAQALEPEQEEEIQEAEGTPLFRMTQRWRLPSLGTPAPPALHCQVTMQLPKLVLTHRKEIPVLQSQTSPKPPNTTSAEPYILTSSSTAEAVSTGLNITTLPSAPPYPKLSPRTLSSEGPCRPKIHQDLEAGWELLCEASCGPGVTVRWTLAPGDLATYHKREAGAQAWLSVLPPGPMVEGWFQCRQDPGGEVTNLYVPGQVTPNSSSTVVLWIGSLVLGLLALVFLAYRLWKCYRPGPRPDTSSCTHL

T4: recombinant mouse MAdCAM-1 (mouse, UniProt Q61826 22-364, limits assumed)
T4 construct: also called mMAdCAM-1
T4 sequence (looked up): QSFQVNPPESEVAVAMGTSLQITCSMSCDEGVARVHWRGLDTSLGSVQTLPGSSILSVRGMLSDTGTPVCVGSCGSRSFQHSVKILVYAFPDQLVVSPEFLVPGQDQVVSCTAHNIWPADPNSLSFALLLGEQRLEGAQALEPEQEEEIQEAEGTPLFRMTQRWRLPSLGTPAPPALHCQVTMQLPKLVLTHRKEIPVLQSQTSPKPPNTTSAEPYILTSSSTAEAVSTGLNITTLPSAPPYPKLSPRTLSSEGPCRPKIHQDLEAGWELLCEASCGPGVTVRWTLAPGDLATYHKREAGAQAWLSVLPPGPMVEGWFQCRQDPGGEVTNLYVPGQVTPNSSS


Assays:
[1] = molecular target: T1, human MAdCAM protein; assay: Octet
[2] = molecular target: T2, human MAdCAM expressed on cells; assay: cell binding
[3] = molecular target: T3, mouse MAdCAM expressed on cells; assay: cell binding
[4] = molecular target: T4, recombinant mouse MAdCAM-1; assay: Octet

binding result [1] | binding result [2] | binding result [3] | binding result [4] | Binder
binds | binds | binds |  | MAdCAM Antibody Table 2 clone 76 (antibody, V domains shown, IgG format) VH: EVQLLESGGGLVQPGGSLRLSCAASGFTFDDYTMHWVRQAPGKGLEWVSDISGSGGSTYYADSVKGRFTISRDNSKNTLYLQMNSLRAEDTAVYYCAKDVVVAGTPLHFDYWGQGTLVTVSS VL: DIQMTQSPSSLSASVGDRVTITCQASQDISNYLNWYQQKPGKAPKLLIYAASYLQSGVPSRFSGSGSGTDFTLTISSLQPEDFATYYCQQAHNYPITFGQGTRLEIK
binds | binds | binds |  | MAdCAM Antibody Table 2 clone 84 (antibody, V domains shown, IgG format) VH: QVQLVQSGAEVKKPGASVKVSCKASGGTFSSSAISWVRQAPGQGLEWMGWISAYNGYTNYAQKFQGRVTMTRDTSTSTVYMELSSLRSEDTAVYYCASRVHSGGSYPDDYWGQGTLVTVSS VL: DIQMTQSPSSLSASVGDRVTITCQASEHIYNYLNWYQQKPGKAPKLLIYAASSLQSGVPSRFSGSGSGTDFTLTISSLQPEDFATYYCQQTDSIPITFGQGTKVEIK
 |  | no binding | no binding | MAdCAM Antibody Table 2 clone 14 (antibody, V domains shown, IgG format) VH: QVQLVQSGAEVKKPGSSVKVSCKASGYTFTNYYMHWVRQAPGQGLEWMGGIIPIVDGVKYAQKFQGRVTITADESTSTAYMELSSLRSEDTAVYYCAKGQFTGNYYYGMDYWGQGTLVTVSS VL: DIQMTQSPSSLSASVGDRVTITCQANQDISNYLNWYQQKPGKAPKLLIYRASKLEAGVPSRFSGSGSGTDFTLTISSLQPEDFATYYCQQSSEIPYSFGQGTKVEIK
binds | binds | binds |  | MAdCAM Antibody Table 2 clone 36 (antibody, V domains shown, IgG format) VH: EVQLLESGGGLVQPGGSLRLSCAASGFTFDDYALHWVRQAPGKGLEWVSAISGDGRSTTYADSVKGRFTISRDNSKNTLYLQMNSLRAEDTAVYYCARDGTVNGATGWFDPWGQGTLVTVSS VL: not shown
binds | binds | no binding |  | MAdCAM Antibody Table 2 clone 55 (antibody, V domains shown, IgG format) VH: EVQLLESGGGLVQPGGSLRLSCAASGFTFDDFAMHWVRQAPGKGLEWVSGISGNGDSRYYADSVKGRFTISRDNSKNTLYLQMNSLRAEDTAVYYCARDASYGGNYGMDVWGQGTTVTVSS VL: DIQMTQSPSSLSASVGDRVTITCQASQDIRNYLNWYQQKPGKAPKLLIYKASTLESGVPSRFSGSGSGTDFTLTISSLQPEDFATYYCQQANSFPLTFGPGTKVDIK
 |  | no binding | no binding | MAdCAM Antibody Table 2 clone 28 (antibody, V domains shown, IgG format) VH: EVQLLESGGGLVQPGGSLRLSCAASGFTFSSYAMSWVRQAPGKGLEWVSYISSSSTYTNYADSVKGRFTISRDNSKNTLYLQMNSLRAEDTAVYYCARANSSSWYDWYFDLWGQGTLVTVSS VL: not shown
 |  | no binding | no binding | MAdCAM Antibody Table 2 clone 29 (antibody, V domains shown, IgG format) VH: EVQLLESGGGLVQPGGSLRLSCAASGFTFSSYQMSWVRQAPGKGLEWVSYISSSSTYTNYADSVKGRFTISRDNSKNTLYLQMNSLRAEDTAVYYCARANSSSWYDWYFDLWGQGTLVTVSS VL: not shown
binds | binds | binds |  | MAdCAM Antibody Table 2 clone 30 (antibody, V domains shown, IgG format) VH: EVQLLESGGGLVQPGGSLRLSCAASGFTFSSYAMHWVRQAPGKGLEWVSGISGSGGSAYYADSVKGRFTISRDNSKNTLYLQMNSLRAEDTAVYYCATSQAPVDYYYYGMDVWGQGTTVTVSS VL: DIQMTQSPSSLSASVGDRVTITCRASQSISSWLAWYQQKPGKAPKLLIYAASNLQRGVPSRFSGSGSGTDFTLTISSLQPEDFATYYCQQSYSIPITFGQGTKVEIK
binds | binds | binds |  | MAdCAM Antibody Table 2 clone 60 (antibody, V domains shown, IgG format) VH: EVQLLESGGGLVQPGGSLRLSCAASGFTFSDHGMHWVRQAPGKGLEWVSVIYGGESTYYADSVKGRFTISRDNSKNTLYLQMNSLRAEDTAVYYCARDPAVAGGGIFDYWGQGTLVTVSS VL: DIQMTQSPSSLSASVGDRVTITCRASQGISNYLAWYQQKPGKAPKLLIYDASNLETGVPSRFSGSGSGTDFTLTISSLQPEDFATYYCQQSYSTCYTFGQGTKLEIK
binds | binds | binds |  | MAdCAM Antibody Table 2 clone 82 (antibody, V domains shown, IgG format) VH: QVQLVQSGAEVKKPGASVKVSCKASGYTFTRHWIHWVRQAPGQGLEWMGWINVKTGGAGYAQKFQGRVTMTRDTSTSTVYMELSSLRSEDTAVYYCARESSGWYGTDVWGQGTTVTVSS VL: DIQMTQSPSSLSASVGDRATITCRASQSISNYLAWYQQKPGKAPKLLIYAASSLQSGVPSRFSGSGSGTDFTLTISSLQPEDFATYYCQQSNSFPLTFGGGTKVEIK
 |  | no binding | no binding | MAdCAM Antibody Table 2 clone 6 (antibody, V domains shown, IgG format) VH: EVQLLESGGGLVQPGGSLRLSCAASGFTFNNYAFHWVRQAPGKGLEWVSRINSYGTSTTYADSVKGRFTISRDNSKNTLYLQMNSLRAEDTAVYYCAREGPVAGYWYFDLWGQGTLVTVSS VL: DIQMTQSPSSLSASVGDRVTITCRASQIIGTNLAWYQQKPGKAPKLLIYGASSLQSGVPSRFSGSGSGTDFTLTISSLQPEDFATYYCQQSYRLPFTFGQGTKVEIK
binds | binds | no binding |  | MAdCAM Antibody Table 2 clone 63 (antibody, V domains shown, IgG format) VH: EVQLLESGGGLVQPGGSLRLSCAASGFTFNNYGMNWVRQAPGKGLEWVSRINSDGSSTSYADSVKGRFTISRDNSKNTLYLQMNSLRAEDTAVYYCARGAYYYYYMDVWGQGTLVTVSS VL: EIVMTQSPATLSVSPGERATLSCRASQSVSGSYLAWYQQKPGQAPRLLIYATSSRASGIPARFSGSGSGTEFTLTISSLQSEDFAVYYCQQYYSGLTFGQGTKVEIK
binds | binds | binds |  | MAdCAM Antibody Table 2 clone 83 (antibody, V domains shown, IgG format) VH: EVQLLESGGGLVQPGGSLRLSCAASGFTFSSYWMHWVRQAPGKGLEWVAAISYDGKYKDYEDSVKGRFTISRDNSKNTLYLQMNSLRAEDTAVYYCARENKQWLASFDYWGQGTLVTVSS VL: DIQMTQSPSSLSASVGDRVTITCQASQDISNFVNWYQQKPGKAPKLLIYAANLRSGVPSRFSGSGSGTDFTLTISSLQPEDFATYYCQQANSFPVTFGPGTKVDIK
binds | binds | no binding |  | MAdCAM Antibody Table 2 clone 58 (antibody, V domains shown, IgG format) VH: EVQLLESGGGLVQPGGSLRLSCAASGFSVSSNYMSWVRQAPGKGLEWVAGISYDGSSKPYADSVKGRFTISRDNSKNTLYLQMNSLRAEDTAVYYCARSRGIAARPLQHWGQGTLVTVSS VL: not shown
binds | binds | binds |  | MAdCAM Antibody Table 2 clone 78 (antibody, V domains shown, IgG format) VH: QVQLVQSGAEVKKPGSSVKVSCKASGGTFSSYAISWVRQAPGQGLEWMGWMEPHTGNTRYAQKFQGRVTITADESTSTAYMELSSLRSEDTAVYYCAKGGFSWFDPWGQGTLVTVSS VL: not shown
